“And” between values parts separate entries of the source, which are not always exact repeats. Equal entries are not always repeated.
Columns and labels:
[1] = target: KPf, chimeric protein of the ATPase domain of DnaK and the substrate binding domain of PfHsp70-1 (Escherichia coli | Plasmodium falciparum); experiment: SPR
[2] = system: Nc1ncnc2c1ncn2[C@@H]1O[C@H](COP(=O)(O)OP(=O)(O)OP(=O)(O)O)[C@@H](O)[C@H]1O; experiment: purified protein, by the assay type; settings: pH 7.5
Protocol: Hsp70 proteins at final concentration of 0.4 μM were each incubated for 5 min in buffer HKMD (10 mM HEPES-KOH pH 7.5, 100 mM KCl, 2 mM MgCl2 and 0.5 mM DTT). The reaction was initiated by the addition of ATP at various concentrations (0–5 mM) and samples were analyzed every 30 min for 4 h.
Standard deviations shown represent three independent assays made using separate protein purification batches.
validated by one way ANOVA test (p< 0.05 *) and (p<0.01**).

Row | Substance | kon [1] | Km [2] [µM]
1 | KPf, chimeric protein of the ATPase domain of DnaK and the substrate binding domain of PfHsp70-1 | 154 M⁻¹ s⁻¹ and 132 M⁻¹ s⁻¹ and 142 M⁻¹ s⁻¹ | –
2 | PfHsp70-1 (Plasmodium falciparum 3D7) | – | 370.8
